# Assay results as given in PMC7242879, “Exploring the Molecular Basis for Substrate Affinity and Structural Stability in Bacterial GH39 β-Xylosidases” (Frontiers in Bioengineering and Biotechnology, 2020).
# System: O=[N+]([O-])c1ccc(O[C@@H]2OC[C@@H](O)[C@H](O)[C@H]2O)cc1
# Assay: purified protein
# Conditions: McIlvaine buffer 50 mM pH 5.5, 40 °C, 0.1–25 mM substrate, 13.6 μM enzyme, 15 min
substance,measurement,value
XacXynB (Xanthomonas citri subsp. citri 306),Km,1930 ± 250 µM
same,kcat,4.43 ± 0.142 s⁻¹
same,kcat/Km,2300 M⁻¹ s⁻¹
